The values below come from publication PMC11518761, “Making the effect visible – OX40 targeting nanobodies for in vivo imaging of activated T cells” (Frontiers in Immunology, 2024).

Assay [1] has as its target T1, recombinant hOX40, extracellular part (Leu 29 - Ala 216) (human, UniProt P43489 29-216).
T1 chain: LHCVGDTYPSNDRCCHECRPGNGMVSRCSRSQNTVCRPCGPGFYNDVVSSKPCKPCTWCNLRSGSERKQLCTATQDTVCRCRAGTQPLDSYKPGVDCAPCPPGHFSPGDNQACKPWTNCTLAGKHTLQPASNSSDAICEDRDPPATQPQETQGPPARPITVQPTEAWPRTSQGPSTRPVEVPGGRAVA
The experiment in a line: BLI.

Assay [2] addresses T2, hOX40 full length on U2OS cells (U2OS-hOX40) (human, UniProt P43489 29-277).
T2 chain: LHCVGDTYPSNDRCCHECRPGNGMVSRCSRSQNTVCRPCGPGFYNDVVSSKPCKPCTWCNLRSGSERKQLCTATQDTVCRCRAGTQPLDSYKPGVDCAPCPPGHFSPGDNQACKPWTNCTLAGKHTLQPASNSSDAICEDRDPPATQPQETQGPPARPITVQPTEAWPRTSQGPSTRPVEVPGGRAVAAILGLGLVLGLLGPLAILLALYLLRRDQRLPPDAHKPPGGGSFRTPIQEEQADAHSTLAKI
Kind of assay: FACS. (Flow cytometry measures light scatter and fluorescence of single cells or particles in a stream.)

Assay [3] deals with T3, murine OX40 on U2OS cells (Mus musculus, UniProt P47741).
T3 construct: murine OX40, DNA bought from Sino Biological (Catalog Number MG50808-NM); The catalogue suffix -NM may denote an N-terminal Myc tag (surmised); also called mOX40; source: U2OS cells, transiently transfected, on the cell surface
The experiment in a line: immunostaining of cells or tissue; live-cell immunofluorescence of U2OS cells expressing hOX40 (stable) or murine OX40 (transient) with 10 -1000 nM AF647-labeled Nbs, 30 min, 4°C. Conditions: one partner purified.

Assay [4] concerns the target T4, recombinant hOX40, extracellular part (Leu 29 - Ala 216) (human, UniProt P43489).
T4 construct: human OX40 (CD134/TNFRSF4), extracellular part, Leu29 to Ala216; The limits are stated for the immunogen; the BLI methods say only 'hOX40' / 'recombinant hOX40'; also called CD134; TNFRSF4; source: bought: Acrobiosystems, produced in human HEK293 cells
Kind of assay: BLI; biotinylated Nb (5 µg/mL) immobilised on streptavidin biosensors; hOX40 dilution series 0.2 nM - 320 nM, association 300 s, dissociation 720 s; Octet buffer (PBS, 0.1% BSA, 0.02% Tween20); 1:1 ligand-binding model, global fitting. Conditions: both partners purified. (BLI is a label-free optical method that tracks binding on a fibre tip over time.)

Assay [5] addresses T1, recombinant hOX40, extracellular part …. The experiment in a line: BLI.
Assay [6] deals with T5, hOX40 full length on U2OS cells (U2OS-hOX40) (Homo sapiens, UniProt P43489).
T5 construct: human OX40 (CD134/TNFRSF4), cDNA GenBank NM_003327.3 in an IRES-eGFP/Blasticidin S deaminase vector; Also used as the target of the functional rows, where hOX40 stood on Jurkat-based OX40 effector cells (Promega); also called cellular expressed hOX40; hOX40 full length (D1-4); source: U2OS cells stably overexpressing hOX40, on the cell surface
Kind of assay: flow cytometry on cells; U2OS-hOX40 cells with dilution series of AF647-labeled Nbs (O12, O18 from 2.5 µM; O7, O19 from 10 µM), 4°C, 30 min, FACS buffer; KD as half-maximum binding at equilibrium, four-parametric sigmoidal model. Conditions: one partner purified.

The target of assay [7] is T6, endogenous hOX40 on activated human T cells (Homo sapiens, UniProt P43489).
T6 construct: human OX40 (CD134/TNFRSF4), endogenous on T cells; also called physiologically expressed hOX40; source: endogenous, hPBMCs of healthy donors stimulated 24 h with PHA-L and IL-2 (CD3+ T cells)
The experiment in a line: flow cytometry on cells; hPBMCs of three donors after 24 h PHA-L/IL-2 stimulation, AF647-labeled Nbs (200 nM; 400 nM for T cell subpopulations), 4°C, gated on CD3+ (and CD4+, CD8+, Treg). Conditions: one partner purified.

The target of assay [8] is hOX40-Nbs with KD values in the pico- to low nanomolar range (O12, O18 and O19). Kind of assay: BLI; biotinylated Nb (5 µg/mL) immobilised on streptavidin biosensors; hOX40 dilution series 0.2 nM - 320 nM, association 300 s, dissociation 720 s; Octet buffer (PBS, 0.1% BSA, 0.02% Tween20); 1:1 ligand-binding model, global fitting.
The target in assay [9] is T7, human OX40 on HT1080 cells (HT1080-hOX40) (Homo sapiens, UniProt P43489).
T7 construct: human OX40 (CD134/TNFRSF4); the construct used for HT1080 cells is not described; source: HT1080 cells stably expressing human OX40, as subcutaneous xenograft tumors in CD1 nude mice
The experiment in a line: in vivo optical imaging; 5 µg O18-AF647 i.v. in CD1 nude mice with subcutaneous HT1080-hOX40 or HT1080-WT tumors; imaging over 6 h and ex vivo imaging of explanted tumors. Conditions: one partner purified.

T3 sequence (P47741 20-272): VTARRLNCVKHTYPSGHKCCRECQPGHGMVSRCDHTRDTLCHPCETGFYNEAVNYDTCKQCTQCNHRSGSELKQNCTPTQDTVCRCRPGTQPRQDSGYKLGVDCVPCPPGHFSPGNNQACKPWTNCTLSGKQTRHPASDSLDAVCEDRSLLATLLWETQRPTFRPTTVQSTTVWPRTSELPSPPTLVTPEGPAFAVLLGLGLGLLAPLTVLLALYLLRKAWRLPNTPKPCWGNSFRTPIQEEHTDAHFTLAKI

B1: hOX40-Nb O7 (VHH)
VHH: DVQLVESGGGLVQPGGSLRLSCAASGFTFGSYAMGWARQVPGKGLEWVSGIYSDGSTYYADSVKGRFTISRDNAKNTVYLQMNSLKPEDTAVYYCATWGAAAPYDYWGQGTQVTVSS
modifications: biotin where immobilised in BLI (site not stated)
In the case of B1, in [1], the koff came to 0.00117 s⁻¹.

B2: AF647-labeled hOX40-Nb O7 (VHH)
VHH: DVQLVESGGGLVQPGGSLRLSCAASGFTFGSYAMGWARQVPGKGLEWVSGIYSDGSTYYADSVKGRFTISRDNAKNTVYLQMNSLKPEDTAVYYCATWGAAAPYDYWGQGTQVTVSS
modifications: C-terminal Gly-Gly-Gly-propyl-azide attached by sortase A and clicked to DBCO-AF647 (labeling ratio 1:1)
Consider B2, for which, in assay [2], the equilibrium dissociation constant (Kd) came out at 5.99 nM.

B3: AF647-labeled hOX40-Nb O7 (VHH)
VHH: DVQLVESGGGLVQPGGSLRLSCAASGFTFGSYAMGWARQVPGKGLEWVSGIYSDGSTYYADSVKGRFTISRDNAKNTVYLQMNSLKPEDTAVYYCATWGAAAPYDYWGQGTQVTVSS
notes: Uncoupled Nb was removed by Ni-NTA, so the His tag is probably lost on sortase coupling (surmised); also called fluorescent Nb O7; source: E. coli XL-1, purified; sortase A coupling, click labelling with DBCO-AF647, HIC
On to B3, for which the binding result in [3] is given as “binds”.

B4: hOX40-Nb O7 (VHH)
VHH: DVQLVESGGGLVQPGGSLRLSCAASGFTFGSYAMGWARQVPGKGLEWVSGIYSDGSTYYADSVKGRFTISRDNAKNTVYLQMNSLKPEDTAVYYCATWGAAAPYDYWGQGTQVTVSS
notes: source: E. coli XL-1 (pHEN6), purified (IMAC, SEC)
Consider B4, for which, in assay [4], the equilibrium dissociation constant (Kd) was approximately 150 nM.

B5: hOX40-Nb O19 (VHH)
VHH: QVQLQESGGGLVQPGGSLRLSCAGSTDTFSMSAAVSWARQAPGKGLEWVSSILSDGSTYYADSVRGRFTISRDNANNTGSLQMNNLKVEDTAVYYCTNLRGRLWSNHKDDYGGQGSRVTVSS
modifications: biotin where immobilised in BLI (site not stated)
Turning to B5, the Kd in [5] turned out to be 3.41 nM. In addition, the dissociation rate constant (koff) in assay [1] is 0.00021 s⁻¹.

B6: AF647-labeled hOX40-Nb O19 (VHH)
VHH: QVQLQESGGGLVQPGGSLRLSCAGSTDTFSMSAAVSWARQAPGKGLEWVSSILSDGSTYYADSVRGRFTISRDNANNTGSLQMNNLKVEDTAVYYCTNLRGRLWSNHKDDYGGQGSRVTVSS
modifications: C-terminal Gly-Gly-Gly-propyl-azide attached by sortase A and clicked to DBCO-AF647 (labeling ratio 1:1)
Take B6: the affinity in assay [2], expressed as Kd, was 9.95 nM.

B7: AF647-labeled hOX40-Nb O19 (VHH)
VHH: QVQLQESGGGLVQPGGSLRLSCAGSTDTFSMSAAVSWARQAPGKGLEWVSSILSDGSTYYADSVRGRFTISRDNANNTGSLQMNNLKVEDTAVYYCTNLRGRLWSNHKDDYGGQGSRVTVSS
notes: Uncoupled Nb was removed by Ni-NTA, so the His tag is probably lost on sortase coupling (surmised); also called fluorescent Nb O19; source: E. coli XL-1, purified; sortase A coupling, click labelling with DBCO-AF647, HIC
With B7, the binding result in assay [6] and in [7] was “binds” throughout.

B8: hOX40-Nb O19 (VHH)
VHH: QVQLQESGGGLVQPGGSLRLSCAGSTDTFSMSAAVSWARQAPGKGLEWVSSILSDGSTYYADSVRGRFTISRDNANNTGSLQMNNLKVEDTAVYYCTNLRGRLWSNHKDDYGGQGSRVTVSS
notes: as for B4
B8: in assay [4], the binding result is “binds”.

B9: recombinant hOX40, extracellular part (Leu 29 - Ala 216) (domain or fragment)
chain: LHCVGDTYPSNDRCCHECRPGNGMVSRCSRSQNTVCRPCGPGFYNDVVSSKPCKPCTWCNLRSGSERKQLCTATQDTVCRCRAGTQPLDSYKPGVDCAPCPPGHFSPGDNQACKPWTNCTLAGKHTLQPASNSSDAICEDRDPPATQPQETQGPPARPITVQPTEAWPRTSQGPSTRPVEVPGGRAVA
B9: the Kd in [8] lay within 0.2 to 3.4 nM.

B10: hOX40-Nb O12 (VHH)
VHH: DVQLQESGGGLVQPGGSLRLSCAASGFTLDNYAIGWFRQAPGKEREGVSCISSSGESTNYADSVKGRFTISRDNAKNTVYLQTNSLKPEDTAVYYCAAVDDIGTTVQFMCNMGPYEYDYWGQGSPVTVSS
modifications: biotin where immobilised in BLI (site not stated)
Turning to B10, the Kd in assay [5] stood at 0.21 nM. In addition, the koff in assay [1] was 2e-05 s⁻¹.

B11: AF647-labeled hOX40-Nb O12 (VHH)
VHH: DVQLQESGGGLVQPGGSLRLSCAASGFTLDNYAIGWFRQAPGKEREGVSCISSSGESTNYADSVKGRFTISRDNAKNTVYLQTNSLKPEDTAVYYCAAVDDIGTTVQFMCNMGPYEYDYWGQGSPVTVSS
notes: Uncoupled Nb was removed by Ni-NTA, so the His tag is probably lost on sortase coupling (surmised); also called fluorescent Nb O12; source: E. coli XL-1, purified; sortase A coupling, click labelling with DBCO-AF647, HIC
The molecule B11 displayed an equilibrium dissociation constant (Kd) in assay [6] of approximately 0.1 nM.

B12: AF647-labeled hOX40-Nb O12 (VHH)
VHH: DVQLQESGGGLVQPGGSLRLSCAASGFTLDNYAIGWFRQAPGKEREGVSCISSSGESTNYADSVKGRFTISRDNAKNTVYLQTNSLKPEDTAVYYCAAVDDIGTTVQFMCNMGPYEYDYWGQGSPVTVSS
modifications: C-terminal Gly-Gly-Gly-propyl-azide attached by sortase A and clicked to DBCO-AF647 (labeling ratio 1:1)
In turn, B12 displayed a Kd in [2] of 0.07 nM.

B13: hOX40-Nb O18 (VHH)
VHH: QVQLVESGGGLVQPGGSLRLSCAASGFTLEDYVIGWFRQAPGKEREEVSCISGSGGIRNVADSMEGRATISRDNAKNTVYLQMNSLKPEDTAVYYCAAGFETSYSYSYYCGVHEYDYWGQGTLVTVSS
modifications: biotin where immobilised in BLI (site not stated)
As for B13, in assay [5], the dissociation constant (Kd) amounted to 1.93 nM. Further, the koff in assay [1] turned out to be 0.00075 s⁻¹.

B14: AF647-labeled hOX40-Nb O18 (VHH)
VHH: QVQLVESGGGLVQPGGSLRLSCAASGFTLEDYVIGWFRQAPGKEREEVSCISGSGGIRNVADSMEGRATISRDNAKNTVYLQMNSLKPEDTAVYYCAAGFETSYSYSYYCGVHEYDYWGQGTLVTVSS
notes: Uncoupled Nb was removed by Ni-NTA, so the His tag is probably lost on sortase coupling (surmised); also called O18_(AF647); fluorescently-labeled Nb O18; source: E. coli XL-1, purified; sortase A coupling, click labelling with DBCO-AF647, HIC
Consider B14, for which the Kd in assay [6] was approximately 0.3 nM. Further, the “fold signal intensity in HT1080-hOX40 over HT1080-WT tumors, 6 h post injection” value in assay [9] is approximately 7 fold.

As a reminder, the koff is the first-order rate constant of dissociation. As a reminder, the Kd is the free concentration of one partner at which half of the binding sites on the other are occupied at equilibrium, for simple one-to-one binding.
